Results taken from patent publication US20260078197A1.

Target: Macaca fascicularis (crab-eating macaque) TFR1 expressed on CHO-S cells (Macaca fascicularis (crab-eating macaque))
Assay: flow cytometry on CHO-S-fasTFR1 cells; anti-hIgG-Fc Alexa Fluor 647 secondary

Sequence of Macaca fascicularis (crab-eating macaque) TFR1 expressed on CHO-S cells (Macaca fascicularis (crab-eating macaque)) (chain, as listed by the source limits assumed): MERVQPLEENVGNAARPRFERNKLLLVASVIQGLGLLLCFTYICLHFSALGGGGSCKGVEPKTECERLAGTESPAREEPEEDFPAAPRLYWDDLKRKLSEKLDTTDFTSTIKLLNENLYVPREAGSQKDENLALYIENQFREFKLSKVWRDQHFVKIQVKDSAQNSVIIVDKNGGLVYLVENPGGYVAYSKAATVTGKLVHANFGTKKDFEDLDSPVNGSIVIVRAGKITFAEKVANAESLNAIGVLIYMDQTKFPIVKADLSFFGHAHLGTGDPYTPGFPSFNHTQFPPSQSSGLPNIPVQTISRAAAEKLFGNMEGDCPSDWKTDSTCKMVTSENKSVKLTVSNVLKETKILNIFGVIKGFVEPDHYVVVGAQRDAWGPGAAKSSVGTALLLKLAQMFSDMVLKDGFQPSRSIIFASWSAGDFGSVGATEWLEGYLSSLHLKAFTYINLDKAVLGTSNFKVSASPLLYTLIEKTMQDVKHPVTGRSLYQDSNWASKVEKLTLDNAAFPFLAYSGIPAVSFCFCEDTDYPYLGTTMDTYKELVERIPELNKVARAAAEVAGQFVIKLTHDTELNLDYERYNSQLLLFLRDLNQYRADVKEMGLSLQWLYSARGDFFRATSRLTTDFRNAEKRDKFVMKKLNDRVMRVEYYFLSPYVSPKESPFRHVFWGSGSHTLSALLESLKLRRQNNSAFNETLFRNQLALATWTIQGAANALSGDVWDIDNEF

B1: 24C9 (antibody, human IgG1, V domains shown)
VH: EVQLVQSGGGVVQPGRSLRLSCAASGFTLSSYGMYWVRQAPGKGREWVAFIRFDESKKYYADSVKGRFTISRDNSKNTLYLQMNSLRAEDTAVYYCARDGEGGYCTNGVCHGLDVWGQGTTVTVSS
Q: B1 was tested. Which Percentage of Positive Cells did it give?
A: 0.35%
